Laboratory results as given in patent US20260242478A1 (published 2026).
Where no end group is shown, it is not given here.

B1: Phage-1222 (peptide)
peptide: YCFGHFPEYMAKCL
modifications: cysteine pairing not given here; also: displayed on phage by fusion to pIII, linker and pIII sequence not given here
notes: Tested as clonal phage supernatant
B2: Phage-1231 (peptide)
peptide: YCAGHTPEYLDKCL
modifications: cysteine pairing not given here; also: displayed on phage by fusion to pIII, linker and pIII sequence not given here
notes: as for B1
B3: Phage-1229 (peptide)
peptide: YCDGHLPEYMLKCL
modifications: cysteine pairing not given here; also: displayed on phage by fusion to pIII, linker and pIII sequence not given here
notes: as for B1
B4: Phage-1224 (peptide)
peptide: YCSGHSWAYIGKCL
modifications: cysteine pairing not given here; also: displayed on phage by fusion to pIII, linker and pIII sequence not given here
notes: as for B1
B5: Phage-1228 (peptide)
peptide: YCDGHSKEYMSKCL
modifications: cysteine pairing not given here; also: displayed on phage by fusion to pIII, linker and pIII sequence not given here
notes: as for B1
B6: Phage-1226 (peptide)
peptide: YCQGHFPQYMAKCL
modifications: cysteine pairing not given here; also: displayed on phage by fusion to pIII, linker and pIII sequence not given here
notes: as for B1
B7: Phage-1230 (peptide)
peptide: YCAGHLDVYMSKCL
modifications: cysteine pairing not given here; also: displayed on phage by fusion to pIII, linker and pIII sequence not given here
notes: as for B1
B8: Phage-1227 (peptide)
peptide: YCEGHVPEYLVKCL
modifications: cysteine pairing not given here; also: displayed on phage by fusion to pIII, linker and pIII sequence not given here
notes: as for B1
B9: Phage-1225 (peptide)
peptide: YCAGHAAEYMWKCL
modifications: cysteine pairing not given here; also: displayed on phage by fusion to pIII, linker and pIII sequence not given here
notes: as for B1
B10: Phage-1223 (peptide)
peptide: YCDGHTGMYISKCL
modifications: cysteine pairing not given here; also: displayed on phage by fusion to pIII, linker and pIII sequence not given here
notes: as for B1
B11: Phage-1221 (peptide)
peptide: YCEGHSAIYIAKCM
modifications: cysteine pairing not given here; also: displayed on phage by fusion to pIII, linker and pIII sequence not given here
notes: as for B1
B12: Phage-1210 (peptide)
peptide: YCAGHSQVYMWKCL
notes: tested as crude clonal phage supernatant
B13: Phage-1220 (peptide)
peptide: YCDGHVGAYMWKCL
notes: as for B12
B14: Phage-1214 (peptide)
peptide: YCEGHSSVYLWKCL
notes: as for B12
B15: Phage-1218 (peptide)
peptide: YCEGHIEPYMQKCL
notes: as for B12
B16: Phage-1209 (peptide)
peptide: YCAGHSSEYLQKCL
notes: as for B12
B17: Phage-1213 (peptide)
peptide: YCEGHLREYMLKCL
notes: as for B12
B18: Phage-1217 (peptide)
peptide: YCEGHRPEYMANCL
notes: as for B12
B19: Phage-1208 (peptide)
peptide: YCDGHLAEYIQKCL
notes: as for B12
B20: Phage-1216 (peptide)
peptide: YCDGHLEVYMSKCL
notes: as for B12
B21: Phage-1215 (peptide)
peptide: YCEGHSWIYIAKCL
notes: as for B12
B22: Phage-1211 (peptide)
peptide: YCEGHIEQYMRKCL
notes: as for B12
B23: Phage-1219 (peptide)
peptide: YCDGHKPEYMDKCL
notes: as for B12
B24: Phage-1212 (peptide)
peptide: YCFGHAPEYLLKCL
notes: as for B12

The binders below were run against T1, Anti-CD28 Fab (SEQ ID NOs: 696, 697) (assay: phage binding ELISA on plate-captured anti-CD28 Fab pre-incubated with CD28 antigen as competitor).
T1 construct: In the phage ELISA the Fab was biotinylated and captured on neutravidin coated plates
T1 sequence (VH, as listed by the source, chain 1 of 2): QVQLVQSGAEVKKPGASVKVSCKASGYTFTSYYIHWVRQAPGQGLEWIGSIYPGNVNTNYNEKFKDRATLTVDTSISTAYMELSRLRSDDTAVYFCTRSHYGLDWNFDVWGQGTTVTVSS
T1 sequence (VL, as listed by the source, chain 2 of 2): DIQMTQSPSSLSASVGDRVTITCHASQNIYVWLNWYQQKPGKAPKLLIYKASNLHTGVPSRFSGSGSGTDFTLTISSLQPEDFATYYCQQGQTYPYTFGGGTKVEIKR
Procedure: (§1) After panning, phage infected bacteria were plated out and colonies picked into 96 well blocks. Clonal phage was then amplified and separated from bacterial cells via centrifugation.
(§2) Clonal phage were harvested as crude supematants and screened via standard ELISAs. […] Prior to the addition of clonal phage, wells were incubated with blocking buffer and CD28 antigen or blocking buffer alone. Without washing or aspirating, clonal phage supematants were then added to the wells and incubated for a short time. Wells were then washed followed by detection of bound phage using a horse radish conjugated anti-M13 antibody. Clonal phage of interest were then sent for sequence analysis.
With B1 the “Anti-CD28 Fab signal in the presence of CD28 (phage binding ELISA)” value was 0.07. B2 was tested, and the “Anti-CD28 Fab signal in the presence of CD28 (phage binding ELISA)” value was 0.06. In the case of B3, the “Anti-CD28 Fab signal in the presence of CD28 (phage binding ELISA)” value is reported as 0.09. In the case of B4, the “Anti-CD28 Fab signal in the presence of CD28 (phage binding ELISA)” value is reported as 0.07. For B5, the “Anti-CD28 Fab signal in the presence of CD28 (phage binding ELISA)” value was 0.07. For B6, the “Anti-CD28 Fab signal in the presence of CD28 (phage binding ELISA)” value was 0.07. In the case of B7, the “Anti-CD28 Fab signal in the presence of CD28 (phage binding ELISA)” value is reported as 0.09. With B8 the “Anti-CD28 Fab signal in the presence of CD28 (phage binding ELISA)” value was 0.06. For B9, the “Anti-CD28 Fab signal in the presence of CD28 (phage binding ELISA)” value was 0.06. B10 was tested, and the “Anti-CD28 Fab signal in the presence of CD28 (phage binding ELISA)” value was 0.06. In the case of B11, the “Anti-CD28 Fab signal in the presence of CD28 (phage binding ELISA)” value is reported as 0.11.

These binders were tested against T2, Anti-CD28 Fab (SEQ ID NOs: 696, 697) (assay: phage binding ELISA on captured anti-CD28 Fab; competitor: CD28 antigen at saturating concentration).
T2 construct: Biotinylated and captured on neutravidin coated plates in the phage ELISA
T2 sequence (VH, as listed by the source, chain 1 of 2): as the sequence (VH, as listed by the source, chain 1 of 2) above
T2 sequence (VL, as listed by the source, chain 2 of 2): as the sequence (VL, as listed by the source, chain 2 of 2) above
Procedure: as §1, §2
With B12 the “Anti-CD28 Fab signal in the presence of CD28” value was 0.06. B13 was tested, and the “Anti-CD28 Fab signal in the presence of CD28” value was 0.06. In the case of B14, the “Anti-CD28 Fab signal in the presence of CD28” value is reported as 0.05. B15 was tested, and the “Anti-CD28 Fab signal in the presence of CD28” value was 0.06. With B16 the “Anti-CD28 Fab signal in the presence of CD28” value was 0.09. B17 was tested, and the “Anti-CD28 Fab signal in the presence of CD28” value was 0.07. In the case of B18, the “Anti-CD28 Fab signal in the presence of CD28” value is reported as 0.06. With B19 the “Anti-CD28 Fab signal in the presence of CD28” value was 0.08. For B20, the “Anti-CD28 Fab signal in the presence of CD28” value was 0.09. With B21 the “Anti-CD28 Fab signal in the presence of CD28” value was 0.07. With B22 the “Anti-CD28 Fab signal in the presence of CD28” value was 0.06. B23 was tested, and the “Anti-CD28 Fab signal in the presence of CD28” value was 0.07. For B24, the “Anti-CD28 Fab signal in the presence of CD28” value was 0.08.

What follows are binders tested against T1, Anti-CD28 Fab (SEQ ID NOs: 696, 697) (assay: phage binding ELISA; clonal phage on plate-captured biotinylated anti-CD28 Fab, anti-M13 HRP detection).
Procedure: as §1, §2
B1 was tested, and the “Anti-CD28 Fab signal (phage binding ELISA)” value was 0.98. For B2, the “Anti-CD28 Fab signal (phage binding ELISA)” value was 0.95. For B3, the “Anti-CD28 Fab signal (phage binding ELISA)” value was 0.96. With B4 the “Anti-CD28 Fab signal (phage binding ELISA)” value was 0.98. In the case of B5, the “Anti-CD28 Fab signal (phage binding ELISA)” value is reported as 0.96. In the case of B6, the “Anti-CD28 Fab signal (phage binding ELISA)” value is reported as 0.97. For B7, the “Anti-CD28 Fab signal (phage binding ELISA)” value was 0.96. In the case of B8, the “Anti-CD28 Fab signal (phage binding ELISA)” value is reported as 0.96. B9 was tested, and the “Anti-CD28 Fab signal (phage binding ELISA)” value was 0.97. In the case of B10, the “Anti-CD28 Fab signal (phage binding ELISA)” value is reported as 0.98. In the case of B11, the “Anti-CD28 Fab signal (phage binding ELISA)” value is reported as 0.98.

What follows are binders tested against T2, Anti-CD28 Fab (SEQ ID NOs: 696, 697) (assay: phage binding ELISA; biotinylated anti-CD28 Fab on neutravidin plate, bound phage detected with anti-M13 HRP;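 note: crude supernatants of clonal phage screened, wells pretreated with blocking buffer with or without CD28 antigen before brief phage incubation, washed, then bound phage detected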).
Procedure: as §1, §2
B12 was tested, and the “Anti-CD28 Fab signal” value was 1.02. With B13 the “Anti-CD28 Fab signal” value was 0.99. For B14, the “Anti-CD28 Fab signal” value was 1. B15 was tested, and the “Anti-CD28 Fab signal” value was 0.99. In the case of B16, the “Anti-CD28 Fab signal” value is reported as 1.03. In the case of B17, the “Anti-CD28 Fab signal” value is reported as 1.01. For B18, the “Anti-CD28 Fab signal” value was 1. For B19, the “Anti-CD28 Fab signal” value was 1.04. With B20 the “Anti-CD28 Fab signal” value was 1. In the case of B21, the “Anti-CD28 Fab signal” value is reported as 1. In the case of B22, the “Anti-CD28 Fab signal” value is reported as 1.01. For B23, the “Anti-CD28 Fab signal” value was 0.99. In the case of B24, the “Anti-CD28 Fab signal” value is reported as 1.01.
